Data taken from PMC2865256 (Journal of immunology (Baltimore, Md. : 1950), 2009).

Target: T1, mouse HVEM on splenic T cells (mouse (endogenous in splenic T cells), UniProt Q80WM9 39-275)
T1 sequence (looked up): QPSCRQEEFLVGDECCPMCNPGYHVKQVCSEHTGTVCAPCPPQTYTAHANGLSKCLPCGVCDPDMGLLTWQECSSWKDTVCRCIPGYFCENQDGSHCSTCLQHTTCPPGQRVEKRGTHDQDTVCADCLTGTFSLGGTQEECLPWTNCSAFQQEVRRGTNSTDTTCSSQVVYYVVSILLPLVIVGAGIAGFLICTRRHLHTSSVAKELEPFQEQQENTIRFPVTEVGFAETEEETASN
Experiment: flow cytometry on cells

MFI ratio of Btla-/- T cells to WT T cells: 4.4
B1: mouse BTLA-Fc (Fc fusion, UniProt Q7TSA3 30-183, looked up)
chain: EKATKRNDEECPVQLTITRNSKQSARTGELFKIQCPVKYCVHRPNVTWCKHNGTICVPLEVSPQLYTSWEENQSVPVFVLHFKPIHLSDNGSYSCSTNFNSQVINSHSVTIHVRERTQNSSEHPLITVSDIPDATNASGPSTMEERPGRTWLLY
